The source of these data is patent publication US20030104423.

Positions count from the first letter of the chain named. Numbers in names are those of the source.

Sequences and labels used below:
B1: β′ mutant R297L (protein)
chain: MKDLLKFLKAQTKTEEFDAIKIALASPDMIRSWSFGEVKKPETINYRTFKPERDGLFCARIFGPVKDYECLCGKYKRLKHRGVICEKCGVEVTQTKVRRERMGHIELASPTAHIWFLKSLPSRIGLLLDMPLRDIERVLYFESYVVIEGGMTNLERQQILTEEQYLDALEEFGDEFDAKMGAEAIQALLKSMDLEQECEQLREELNETNSETKRKKLTKRIKLLEAFVQSGNKPEWMILTVLPVLPPDLRPLVPLDGGRFATSDLNDLYRRVINRNNRLKRLLDLAAPDIIVRNEKLMLQEAVDALLDNGRRGRAITGS
B2: β′ mutant V272D (protein)
chain: B1 chain with V272D, L297R
B3: β′ mutant N274P (protein)
chain: B1 chain with N274P, L297R
B4: β′ mutant N274D (protein)
chain: B1 chain with N274D, L297R
B5: β′ mutant E301P (protein)
chain: B1 chain with L297R, E301P
B6: β′ mutant R270L (protein)
chain: B1 chain with R270L, L297R
B7: β′ mutant L299D (protein)
chain: B1 chain with L297R, L299D
B8: β′ mutant E301K (protein)
chain: B1 chain with L297R, E301K

The target of the series is σ70, native, untagged (pLN12), P00579.
Sequence of σ70, native, untagged (pLN12), P00579 (P00579 whole entry): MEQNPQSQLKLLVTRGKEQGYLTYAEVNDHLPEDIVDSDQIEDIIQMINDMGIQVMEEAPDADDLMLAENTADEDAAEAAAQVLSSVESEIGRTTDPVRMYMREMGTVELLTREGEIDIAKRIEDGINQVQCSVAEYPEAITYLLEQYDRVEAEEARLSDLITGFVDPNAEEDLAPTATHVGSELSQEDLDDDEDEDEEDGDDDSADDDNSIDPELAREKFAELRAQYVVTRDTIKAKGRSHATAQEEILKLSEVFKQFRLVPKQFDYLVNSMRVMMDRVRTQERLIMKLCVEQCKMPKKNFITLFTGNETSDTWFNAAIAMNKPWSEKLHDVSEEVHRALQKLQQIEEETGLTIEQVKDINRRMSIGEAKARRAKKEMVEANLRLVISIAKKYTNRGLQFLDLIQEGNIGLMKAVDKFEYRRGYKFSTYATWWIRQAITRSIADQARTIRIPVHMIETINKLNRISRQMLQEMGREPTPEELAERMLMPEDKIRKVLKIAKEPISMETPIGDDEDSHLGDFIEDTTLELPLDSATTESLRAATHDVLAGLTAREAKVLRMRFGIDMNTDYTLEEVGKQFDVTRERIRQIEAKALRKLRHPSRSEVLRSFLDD
For B1, the “Growth at 42° C. with plasmid β′ as sole source of β′ (strain RL602)” value was “-”.
As for B2, the “Growth at 42° C. with plasmid β′ as sole source of β′ (strain RL602)” value was “-”.
For B3 the value was “-”; for B4, “+”; for B5, “-”.
For B6 the value was “+”; for B7, “-”; for B8, “+”.
